Results: US20170218389A1, “METHODS AND COMPOSITIONS FOR STOMATA REGULATION, PLANT IMMUNITY, AND DROUGHT TOLERANCE” (priority 2016, published 2017)
One block for each molecule: values may come before it.

Columns and labels:
[1] = tested on: stomata of Arabidopsis epidermal peels; assay: Stomatal aperture in epidermal peels of Col-0 and AtGCN4 overexpressor lines; type: cell-based; conditions: coronatine treatment
Procedure: A representative histogram is depicted of stomatal aperture in Arabidopsis plant epidermal peels from wild-type Col-0 and GCN4-overexpressing (AtGCN4-OE6 and AtGCN4-OE16) lines measured 4 hours after treatment with MES buffer, COR, ABA, or COR+ABA.
Upon detection of PAMPs, stomata rapidly closes to prevent entry of the pathogen into apoplast (Melotto et al., 2006; Lee et al., 2013). […] Epidermal peels of AtGCN4 overexpressing lines were used to investigate whether stomata reopen after treatment with MES buffer (stomata opening buffer; control) or the host pathogen P. syringae pv. tomato DC3000. In wild-type Col-0, stomata reopened 3 hpi, while in the AtGCN4 overexpressor lines (AtGCN4-OE6 and AtGCN4-OE16), stomata remained closed even 4 hpi with P. syringae pv. tomato DC3000. Stomatal aperture was measured after ABA and coronatine treatments in order to investigate stomatal function in AtGCN4 overexpressor lines. ABA treatment induces stomatal closure in plants. After ABA treatment, the stomatal aperture size was reduced due to closing in both wild-type Col-0 and the AtGCN4 overexpressor lines.

[2] = target: T1, Jasmonate-Zim-Domain Protein 9 (JAZ9, At1g70700), full-length, Q8W4J8
T1 chain: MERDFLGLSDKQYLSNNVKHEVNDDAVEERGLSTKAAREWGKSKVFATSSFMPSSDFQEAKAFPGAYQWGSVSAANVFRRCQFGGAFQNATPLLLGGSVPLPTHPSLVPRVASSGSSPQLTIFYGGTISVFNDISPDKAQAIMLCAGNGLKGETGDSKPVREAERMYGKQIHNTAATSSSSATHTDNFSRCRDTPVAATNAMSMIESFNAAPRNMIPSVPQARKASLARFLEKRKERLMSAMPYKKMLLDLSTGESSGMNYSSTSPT

[3] = target: T2, AtGCN4 (Arabidopsis thaliana GCN4, general control non-repressible 4, At3G54540) (Arabidopsis thaliana, UniProt Q9M1H3 1-723); assay: title of Example 19 (yeast two-hybrid, BiFC)
T2 construct: Yeast two-hybrid fusion; in BiFC the C-terminal half of YFP was fused to the N-terminus of AtGCN4 (c-YFP-AtGCN4); also called c-YFP-AtGCN4
T2 sequence: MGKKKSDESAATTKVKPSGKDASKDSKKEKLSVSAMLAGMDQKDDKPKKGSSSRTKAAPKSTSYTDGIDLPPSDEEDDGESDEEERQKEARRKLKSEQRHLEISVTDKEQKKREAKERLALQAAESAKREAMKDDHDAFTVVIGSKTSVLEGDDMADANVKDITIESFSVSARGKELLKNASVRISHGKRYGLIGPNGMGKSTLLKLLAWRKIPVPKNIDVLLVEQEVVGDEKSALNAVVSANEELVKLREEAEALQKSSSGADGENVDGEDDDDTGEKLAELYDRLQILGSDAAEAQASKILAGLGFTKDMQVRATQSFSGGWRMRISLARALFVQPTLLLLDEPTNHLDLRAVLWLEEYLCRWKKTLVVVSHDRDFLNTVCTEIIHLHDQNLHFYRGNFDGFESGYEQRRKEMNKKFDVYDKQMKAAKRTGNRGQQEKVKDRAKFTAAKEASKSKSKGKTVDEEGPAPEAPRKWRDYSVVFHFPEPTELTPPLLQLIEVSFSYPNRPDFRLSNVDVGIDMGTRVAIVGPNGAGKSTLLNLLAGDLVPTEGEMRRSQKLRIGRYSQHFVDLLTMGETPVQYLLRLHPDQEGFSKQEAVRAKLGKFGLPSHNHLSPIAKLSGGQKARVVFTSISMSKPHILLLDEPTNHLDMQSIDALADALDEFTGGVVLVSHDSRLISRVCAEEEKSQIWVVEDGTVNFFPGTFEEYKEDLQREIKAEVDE
Description: Stable transgenic lines were developed expressing GFP fused to the C-terminal end of AtGCN4 and driven under its native promoter. AtGCN4-GFP localized in guard cells, plasma membrane, and cytoplasm. Without being limited by theory, as AtGCN4 localized in the plasma membrane and guard cells, and plays role in the stomatal function, the present inventors reasoned that AtGCN4 interacts with other proteins responsible for stomatal function, such as SLAC1 and RIN4. SLAC1 closes stomata on ABA signaling (Vahisalu et al., 2008) and RIN4 activates a plasma membrane H⁺-ATPase and opens stomata (Liu et al., 2009). A yeast two-hybrid system between GCN4:SLAC1 and GCN4:RIN4 was used to investigate potential protein-protein interactions. AtGCN4 interacted with SLAC1 and RIN4. A BiFC assay (Hu et al., 2002) was used to verify these interactions in planta. AtGCN4 was co-transformed in yeast with either SLAC1 or RIN4 to observe protein-protein interaction using a yeast two-hybrid system. […] Protein-protein interactions were observed as yellow fluorescence with an equivalent bright field image. […] Protein-protein interactions were observed as yellow fluorescence while the plasma membrane was visualized as red fluorescence. […]

Molecule: CC[C@H]1C=C(C(=O)N[C@@]2(C(=O)O)C[C@@H]2CC)[C@H]2CCC(=O)[C@H]2C1 [coronatine]
Stomatal aperture size ([1]; Col-0 plants): increased aperture size
Stomatal aperture size ([1]; GCN4 overexpressor lines): did not increase

B1: His-tagged NHR1A protein expressed in E. coli (full-length recombinant AtNHR1A, N-terminal His-tagged fusion protein) (protein)
chain: MTIVSTCCPFGLSNVTKCINFVQIKEAKTMVKYNFKKITVVPNGKQFVDIVLSRTQRQTPTVVHKGDRICKLRSFYMRKVKFTESNFNEKLSAIIDEFPRLKEIQPFYEDLLHVLYNKDHYKLALGQVNTAKNKISKIAMDYVKLLKHGDSLYRCKCLKVAALGRMCTVMKGIGPSLAYLEQVRQHIARLPSIDPNTRTLLICGCPNVGKSSFMNKVTRADVAVQPYAFTTKSLFLGHTDYKCLRYQVIDTPGLLDREIEDRNIIELCSITALAHIRAAVLFFLDISGSCGYTIAQQASLFHNIKSVFKNKPLVIVCNKTDLMPMENLSEEDRKLIEEMKDEAMKTEMGASEEAVILEMSTLTEEGVMSRLLDQRVAAKMKSKKIGDHLNRFHVAMPKSRDDQERLPCIPQVAGEKEKRKTEKDLEDENGGAGVYSASLKKNYILAKEEWKDDIIPEICDCHNVADFVDSDILNRLEELTSEESLRKAEEEEVGFEIEGEELTEKEKNDLAAIRKKKALLIEESRLKKSNAQNRAAVPRKFDKDKKFTRKRMGRELSSLGLDPSSALNRARSKSRGRKRERYDDLSNDAMDVDVNDDEQHKKKKMCLRSKSRSLSRSRSVSRPPHEVVPGEGFKDSSQKIKAIKIGHKSHRKRDKAARRGEADRVIPSLKPKHLFSGKRGNGKNQRR
rate of GTP hydrolysis [2]: in the presence of JAZ9, the rate of GTP hydrolysis significantly decreased

The remaining lines, values ahead:

binding result [3]: binds
B2: RIN4 (Rpm1 Interaction Protein 4) (other, UniProt Q8GYN5 1-211, looked up)
chain: MARSNVPKFGNWEAEENVPYTAYFDKARKTRAPGSKIMNPNDPEYNSDSQSQAPPHPPSSRTKPEQVDTVRRSREHMRSREESELKQFGDAGGSSNEAANKRQGRASQNNSYDNKSPLHKNSYDGTGKSRPKPTNLRADESPEKVTVVPKFGDWDENNPSSADGYTHIFNKVREERSSGANVSGSSRTPTHQSSRNPNNTSSCCCFGFGGK
notes: Yeast two-hybrid fusion; in BiFC the N-terminal half of YFP was fused to the C-terminus of RIN4 (RIN4-nYFP); also called RIN4-nYFP

binding result [3]: binds
B3: SLAC1 (Slow Anion Channel-Associated 1) (other, UniProt Q9LD83 1-556, looked up)
chain: MERKQSNAHSTFADINEVEDEAEQELQQQENNNNKRFSGNRGPNRGKQRPFRGFSRQVSLETGFSVLNRESRERDDKKSLPRSGRSFGGFESGGIINGGDGRKTDFSMFRTKSTLSKQKSLLPSIIRERDIENSLRTEDGETKDDSINENVSAGRYFAALRGPELDEVKDNEDILLPKEEQWPFLLRFPIGCFGICLGLSSQAVLWLALAKSPATNFLHITPLINLVVWLFSLVVLVSVSFTYILKCIFYFEAVKREYFHPVRVNFFFAPWVVCMFLAISVPPMFSPNRKYLHPAIWCVFMGPYFFLELKIYGQWLSGGKRRLCKVANPSSHLSVVGNFVGAILASKVGWDEVAKFLWAVGFAHYLVVFVTLYQRLPTSEALPKELHPVYSMFIAAPSAASIAWNTIYGQFDGCSRTCFFIALFLYISLVARINFFTGFKFSVAWWSYTFPMTTASVATIKYAEAVPGYPSRALALTLSFISTAMVCVLFVSTLLHAFVWQTLFPNDLAIAITKRKLTREKKPFKRAYDLKRWTKQALAKKISAEKDFEAEEESHH
notes: Yeast two-hybrid fusion; in BiFC the N-terminal half of YFP was fused to the C-terminus of SLAC1 (SLAC1-nYFP); also called SLAC1-nYFP
